Assays:
Type I collagen = Type I collagen (Homo sapiens, UniProt P02452+P08123); experiment: SPR specificity vs Type I collagen; type: binding
Experimental: (§1) The purified proteins were immobilized on a CM-5 sensor chip (GE Healthcare) using NHS/EDC after PDEA activation resulting in 110-140 RU with a Biacore 3000 system (GE Healthcare). The chip was equilibrated with SPR running buffer (PBS 0.05% Tween pH 7.3). Upon binding, target analyte was accumulated on the surface increasing the refractive index. This change in the refractive index was measured in real time and plotted as response or resonance units versus time. The analytes were applied to the chip in serial dilutions with a flow rate of 30 μl/min. The association was performed for 120 seconds and the dissociation for 120 seconds. After each run, the chip surface was regenerated with 30 μl regeneration buffer (10 mM glycine pH 2.0) and equilibrated with running buffer.
(§2) Binding studies were carried out by the use of the BIAcore 3000 (GE Healthcare); data evaluation was operated via the BIAevaluation 3.0 software, provided by the manufacturer, using the Langmuir 1:1 model (RI=0). Evaluated dissociation constants (KD) were standardized against the immobilized protein and indicated. Shown is the change in refractive index measured in real time and plotted as response or resonance unit [RU] versus time [sec].

Type III collagen = target: T1, Type III collagen (Homo sapiens, UniProt P02461); experiment: SPR specificity vs Type III collagen; type: binding
T1 sequence (P02461 154-1221 limits assumed): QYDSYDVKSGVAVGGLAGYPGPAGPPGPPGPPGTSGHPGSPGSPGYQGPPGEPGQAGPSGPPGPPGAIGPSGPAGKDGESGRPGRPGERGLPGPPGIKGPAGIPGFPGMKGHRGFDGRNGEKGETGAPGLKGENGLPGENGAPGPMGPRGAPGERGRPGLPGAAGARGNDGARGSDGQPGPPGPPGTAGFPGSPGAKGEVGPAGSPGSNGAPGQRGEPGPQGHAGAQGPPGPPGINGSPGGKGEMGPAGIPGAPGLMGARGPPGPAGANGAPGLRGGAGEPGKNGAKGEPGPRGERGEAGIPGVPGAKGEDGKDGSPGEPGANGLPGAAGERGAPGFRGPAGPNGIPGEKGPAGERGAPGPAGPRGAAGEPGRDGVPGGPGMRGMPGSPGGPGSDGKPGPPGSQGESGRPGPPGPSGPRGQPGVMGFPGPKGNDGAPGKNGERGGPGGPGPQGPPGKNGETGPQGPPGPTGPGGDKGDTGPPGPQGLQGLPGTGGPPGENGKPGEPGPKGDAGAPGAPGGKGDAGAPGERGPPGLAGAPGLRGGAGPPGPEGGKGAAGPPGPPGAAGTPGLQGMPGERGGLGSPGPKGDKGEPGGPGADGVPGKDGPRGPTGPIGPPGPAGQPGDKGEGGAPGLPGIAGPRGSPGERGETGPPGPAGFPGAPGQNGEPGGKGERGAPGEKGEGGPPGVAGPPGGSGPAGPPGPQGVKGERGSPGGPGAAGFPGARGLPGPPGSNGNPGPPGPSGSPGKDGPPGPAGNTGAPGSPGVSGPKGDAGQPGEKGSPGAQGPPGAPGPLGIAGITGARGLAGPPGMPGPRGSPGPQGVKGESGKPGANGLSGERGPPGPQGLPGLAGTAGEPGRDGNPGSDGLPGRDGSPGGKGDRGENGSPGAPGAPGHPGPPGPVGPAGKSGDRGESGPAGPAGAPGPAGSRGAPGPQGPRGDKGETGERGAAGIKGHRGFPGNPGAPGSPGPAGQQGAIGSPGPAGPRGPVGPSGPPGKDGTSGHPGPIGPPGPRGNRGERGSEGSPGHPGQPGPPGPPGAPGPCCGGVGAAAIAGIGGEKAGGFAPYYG
Experimental: as §1, §2

BSA = BSA (Bos taurus, UniProt P02769); experiment: SPR control BSA; type: binding
Experimental: as §1, §2

[1] = target: extradomain B of fibronectin (Homo sapiens, UniProt P02751); experiment: SPR control extradomain B of fibronectin; type: binding
Experimental: as §1, §2

[2] = target: T2, recombinant human collagen type II (h Col II) (Homo sapiens, UniProt P02458); experiment: KD-determination by ELISA vs human collagen type II; type: binding
T2 construct: purchased Chondrex CHX-20051
Experimental: (§3) High binding plates (Greiner, 781061) were immobilized with 2.5 μg/ml recombinant human collagen type II (h Col II, Chondrex, CHX-20051), rabbit collagen type II (rbCol II, prepared from rabbit eyes), porcine collagen type II (p Col II, prepared from porcine eyes), human collagen type I, (h Col I, Sigma, C5483-1MG), human collagen type V (h Col V, Abcam, ab7537), human collagen type III (h Col Ill, Abcam, ab7535) and 67B89 (domain of fibronectin, produced in E. coli) respectively over night at 4° C. ELISA-plates were washed 3 times with PBST (PBS+ 0.1% Tween) and blocked with 3% BSA/0.5% Tween/PBS 2 h at RT. After washing with PBST, dilution series of 1.1 μM to 7×10^−4 nM of dimers (CID 211999, CID 212000), dilution series of 100 nM to 7×10^−6 nM of tetramers (CID 212001 and CID 212704) and dilution series of 10 μM to 2 nM of dimer (CID 212705) were incubated on ELISA-plates 1 h at rt. Plates were washed with PBST and incubated with biotinylated anti-StrepTag-ab (Antikörper-online, ABIN1573895) with a dilution of 1:10.000 for 1 h at rt. The binding was visualized with a-rabbit-IgG-HRP (Sigma, A9169) with a dilution of 1:10.000 and as substrate TMB Plus von KEM EN TEC Diagnostic, Kat-Nr. 4395.

[3] = target: T3, human collagen type I (h Col I) (Homo sapiens, UniProt P02452+P08123); experiment: ELISA specificity vs human collagen type I; type: binding
T3 construct: purchased Sigma C5483-1MG
Experimental: as §3

human collagen type III = target: T4, human collagen type III (Homo sapiens, UniProt P02461); experiment: ELISA specificity vs human collagen type III; type: binding
T4 construct: purchased Abcam ab7535
T4 sequence (P02461 154-1221 limits assumed): T1 sequence (P02461 154-1221 limits assumed)
Experimental: as §3

[4] = Soluble expression in Escherichia coli BL21(DE3); type: physicochemical; settings: expression in E. coli BL21(DE3)
Experimental: Variants with affinity tag were expressed in Escherichia coli BL21(DE3) using a low copy plasmid system under regulation of a T7 promoter. Proteins were produced in soluble form after induction by lactose included in the medium (autoinduction medium). BL21 (DE3) competent cells were transformed with the expression plasmid, spread onto selective agar plates (kanamycin) and incubated overnight at 37° C. Precultures were inoculated from single colony in 3 ml 2×YT medium supplemented with 50 μg/ml kanamycin and cultured for 6 hours at 37° C. at 200 rpm in a conventional orbital shaker in culture tubes. […] Cultures were transferred to an orbital shaker and incubated at 30° C. and 200 rpm. […] Before the harvest, the OD600 was measured, samples adjusted to 0.6/OD600 were withdrawn, pelleted and frozen at −20° C. […]
Proteins with affinity tag were purified by affinity chromatography and size exclusion. […] Homogenous species of all purified ligands were obtained; no aggregation was detected. Following SOS-PAGE analysis positive fractions were pooled and their protein concentrations were measured. […] Protein concentrations were determined by absorbance measurement at 280 nm using the molar absorbent coefficient. […] Binding of Collagen II was evaluated by SPR measurements using a Biacore 3000 system. […]

extradomain B of fibronectin, sequence (P02751 1271-1359 limits assumed): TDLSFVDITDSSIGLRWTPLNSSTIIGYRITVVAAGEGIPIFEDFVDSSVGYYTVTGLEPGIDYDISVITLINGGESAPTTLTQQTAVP
Type I collagen, sequence (P02452 162-1218 limits assumed): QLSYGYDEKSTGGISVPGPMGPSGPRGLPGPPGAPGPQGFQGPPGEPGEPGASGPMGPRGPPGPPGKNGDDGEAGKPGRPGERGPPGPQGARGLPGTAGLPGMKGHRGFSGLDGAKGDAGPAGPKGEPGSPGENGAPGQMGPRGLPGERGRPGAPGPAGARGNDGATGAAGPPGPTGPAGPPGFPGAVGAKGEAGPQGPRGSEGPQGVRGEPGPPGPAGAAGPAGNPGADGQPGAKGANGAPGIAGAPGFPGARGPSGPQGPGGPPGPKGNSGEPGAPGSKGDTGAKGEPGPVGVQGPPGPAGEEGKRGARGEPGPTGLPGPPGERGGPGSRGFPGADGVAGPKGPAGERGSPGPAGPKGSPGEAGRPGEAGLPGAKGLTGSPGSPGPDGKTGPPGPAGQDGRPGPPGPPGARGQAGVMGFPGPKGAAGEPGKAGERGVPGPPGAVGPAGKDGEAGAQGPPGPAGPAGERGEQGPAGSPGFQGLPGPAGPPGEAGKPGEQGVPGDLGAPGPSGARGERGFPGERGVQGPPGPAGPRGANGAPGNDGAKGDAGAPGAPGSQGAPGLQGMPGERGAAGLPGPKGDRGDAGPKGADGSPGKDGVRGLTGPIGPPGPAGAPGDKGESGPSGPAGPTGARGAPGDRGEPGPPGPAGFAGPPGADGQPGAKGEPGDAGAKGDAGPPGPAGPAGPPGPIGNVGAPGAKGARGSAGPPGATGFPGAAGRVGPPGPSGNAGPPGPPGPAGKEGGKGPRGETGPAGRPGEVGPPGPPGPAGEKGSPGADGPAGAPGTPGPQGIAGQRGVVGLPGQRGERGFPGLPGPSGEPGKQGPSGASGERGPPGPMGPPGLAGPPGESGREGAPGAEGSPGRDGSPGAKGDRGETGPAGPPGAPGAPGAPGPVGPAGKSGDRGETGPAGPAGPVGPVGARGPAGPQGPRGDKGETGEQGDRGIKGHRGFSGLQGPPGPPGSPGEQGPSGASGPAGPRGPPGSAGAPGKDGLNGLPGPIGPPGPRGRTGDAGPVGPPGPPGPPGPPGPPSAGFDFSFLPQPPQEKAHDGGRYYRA
Type I collagen, sequence (P08123 80-1119 limits assumed): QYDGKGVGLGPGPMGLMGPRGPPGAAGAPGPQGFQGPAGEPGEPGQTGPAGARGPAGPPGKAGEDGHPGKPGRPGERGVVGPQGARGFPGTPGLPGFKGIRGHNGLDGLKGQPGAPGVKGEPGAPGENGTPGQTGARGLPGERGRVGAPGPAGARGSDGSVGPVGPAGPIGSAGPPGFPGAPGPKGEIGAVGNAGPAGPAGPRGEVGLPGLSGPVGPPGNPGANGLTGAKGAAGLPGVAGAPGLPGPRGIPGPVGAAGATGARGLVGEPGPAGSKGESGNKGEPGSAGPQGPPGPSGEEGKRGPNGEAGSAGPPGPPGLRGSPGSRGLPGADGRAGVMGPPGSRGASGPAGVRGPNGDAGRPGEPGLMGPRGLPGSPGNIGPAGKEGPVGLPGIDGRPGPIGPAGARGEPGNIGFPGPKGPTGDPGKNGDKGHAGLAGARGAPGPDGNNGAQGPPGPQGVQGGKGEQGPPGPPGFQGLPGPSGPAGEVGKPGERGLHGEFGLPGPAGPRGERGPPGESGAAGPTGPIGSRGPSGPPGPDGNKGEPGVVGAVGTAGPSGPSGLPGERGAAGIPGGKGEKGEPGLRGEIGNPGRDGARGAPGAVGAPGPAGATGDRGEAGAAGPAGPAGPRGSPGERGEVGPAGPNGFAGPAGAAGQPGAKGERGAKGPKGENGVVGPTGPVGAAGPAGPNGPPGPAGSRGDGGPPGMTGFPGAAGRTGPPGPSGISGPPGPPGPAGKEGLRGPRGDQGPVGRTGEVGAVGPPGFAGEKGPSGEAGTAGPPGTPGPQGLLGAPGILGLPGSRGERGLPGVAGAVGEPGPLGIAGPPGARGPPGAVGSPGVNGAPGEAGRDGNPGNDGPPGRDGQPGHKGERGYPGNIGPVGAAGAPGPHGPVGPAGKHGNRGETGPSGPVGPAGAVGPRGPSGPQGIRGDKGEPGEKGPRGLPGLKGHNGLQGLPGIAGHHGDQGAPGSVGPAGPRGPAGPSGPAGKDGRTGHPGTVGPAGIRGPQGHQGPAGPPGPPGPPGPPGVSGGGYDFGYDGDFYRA
T3 sequence (P02452 162-1218 limits assumed): as the sequence (P02452 162-1218 limits assumed) above
T3 sequence (P08123 80-1119 limits assumed): as the sequence (P08123 80-1119 limits assumed) above
BSA, sequence (P02769 25-607): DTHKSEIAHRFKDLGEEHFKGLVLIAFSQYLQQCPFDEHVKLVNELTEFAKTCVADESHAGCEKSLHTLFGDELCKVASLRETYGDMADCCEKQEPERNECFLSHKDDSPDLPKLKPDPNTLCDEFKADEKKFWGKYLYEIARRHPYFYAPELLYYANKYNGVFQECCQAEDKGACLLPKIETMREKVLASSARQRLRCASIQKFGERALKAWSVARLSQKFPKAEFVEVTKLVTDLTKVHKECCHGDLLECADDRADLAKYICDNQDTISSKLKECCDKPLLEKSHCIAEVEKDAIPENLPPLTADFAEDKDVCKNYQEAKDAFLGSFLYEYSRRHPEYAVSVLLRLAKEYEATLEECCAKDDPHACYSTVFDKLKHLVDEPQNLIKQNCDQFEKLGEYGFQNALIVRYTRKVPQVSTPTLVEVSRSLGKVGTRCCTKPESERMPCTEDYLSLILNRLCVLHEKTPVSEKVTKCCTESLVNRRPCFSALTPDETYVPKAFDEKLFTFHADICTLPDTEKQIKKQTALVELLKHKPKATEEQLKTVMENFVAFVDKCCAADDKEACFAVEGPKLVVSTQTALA
T2 sequence (P02458 182-1241): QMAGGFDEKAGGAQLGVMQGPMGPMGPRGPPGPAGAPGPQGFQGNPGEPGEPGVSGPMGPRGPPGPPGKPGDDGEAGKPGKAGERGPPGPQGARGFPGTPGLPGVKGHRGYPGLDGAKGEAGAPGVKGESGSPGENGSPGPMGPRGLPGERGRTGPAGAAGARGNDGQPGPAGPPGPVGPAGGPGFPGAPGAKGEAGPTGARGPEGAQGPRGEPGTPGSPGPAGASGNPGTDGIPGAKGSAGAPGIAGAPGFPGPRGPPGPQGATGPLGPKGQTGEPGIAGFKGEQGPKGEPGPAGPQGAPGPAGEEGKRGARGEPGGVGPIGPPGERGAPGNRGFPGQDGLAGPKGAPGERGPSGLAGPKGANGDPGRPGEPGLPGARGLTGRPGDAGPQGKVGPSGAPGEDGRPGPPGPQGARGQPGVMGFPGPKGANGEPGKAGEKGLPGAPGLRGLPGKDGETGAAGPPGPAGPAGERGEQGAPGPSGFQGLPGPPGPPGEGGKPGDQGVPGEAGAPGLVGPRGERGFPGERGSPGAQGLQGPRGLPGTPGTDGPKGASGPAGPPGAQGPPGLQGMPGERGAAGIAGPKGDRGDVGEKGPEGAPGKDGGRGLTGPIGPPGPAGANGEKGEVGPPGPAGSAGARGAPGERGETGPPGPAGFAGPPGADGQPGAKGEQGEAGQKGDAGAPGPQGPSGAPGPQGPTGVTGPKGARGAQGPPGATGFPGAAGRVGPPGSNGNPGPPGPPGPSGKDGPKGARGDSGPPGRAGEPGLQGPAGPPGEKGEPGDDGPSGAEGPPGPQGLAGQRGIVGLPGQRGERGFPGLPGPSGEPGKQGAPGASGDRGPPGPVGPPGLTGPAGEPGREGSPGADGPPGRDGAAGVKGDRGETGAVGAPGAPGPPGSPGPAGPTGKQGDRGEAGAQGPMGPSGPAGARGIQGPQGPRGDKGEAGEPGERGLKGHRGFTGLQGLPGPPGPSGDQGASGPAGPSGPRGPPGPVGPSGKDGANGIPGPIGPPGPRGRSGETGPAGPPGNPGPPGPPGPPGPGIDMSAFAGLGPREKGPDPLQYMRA

| Substance | Binding to Type I collagen (SPR) (Type I collagen) | Binding to Type III collagen (SPR) (Type III collagen) | Binding to control BSA (SPR) (BSA) | Binding to control extradomain B of fibronectin (SPR) [1] | binding vs human type II collagen (ELISA, words) [2] | binding to type I collagen (ELISA) [3] | binding to type III collagen (ELISA) (human collagen type III) | Solubility Soluble expression [4] [%] |
| --- | --- | --- | --- | --- | --- | --- | --- | --- |
| CID 211190: type II collagen binding protein of SEQ ID NO: 1 (monomer) (NAASHDEAQLSALVEIWDLPNLTTRQKQKFIYSLQRDPSVSKEVLGEAQKLNDSQAPK; Col2 binding protein 211190) | additional binding | additional binding | not to controls | not to controls | specific binding | additionally | additionally | 95 |
| CID 211261: Type II Collagen binding protein of SEQ ID NO: 2 (monomer, motif 25Q-29Y-33W) (IAAKFDEAQSAADSEILHLPNLTEQQRHYFRRWLSDDPSVSTHILTQAQHLNDDQAPK; Col2 binding protein 211261) | – | – | – | – | – | – | – | 95 |

From US20230416345A1, “NEW TYPE II COLLAGEN BINDING PROTEINS” (Navigo Proteins GmbH, priority 2020, published 2023)
